Article PMC4763987, “Calcium-induced tetramerization and zinc chelation shield human calprotectin from degradation by host and bacterial extracellular proteases† †Electronic supplementary information (ESI) available: Supplementary Tables S1–S6, supplementary Fig. S1–S22. Data for protease activity controls are included …” (Chemical Science, 2015)
Substitutions are numbered along the chain they refer to. In names and notes the source's numbering stands. One block for each binder: values may come before it.

Target: T1, S100A9(C3S) subunit of CP-Ser (human, UniProt P06702 1-114, C3S)
T1 construct: S100A9 (calgranulin B, MRP-14), human, 114 amino acids; also called β subunit
T1 sequence (looked up): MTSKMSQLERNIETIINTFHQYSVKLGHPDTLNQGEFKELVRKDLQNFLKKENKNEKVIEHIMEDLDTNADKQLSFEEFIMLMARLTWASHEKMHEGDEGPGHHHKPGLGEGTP
Assay: co-purification; subunits overexpressed and purified as described previously (ref. 19); the protocol affords the S100A8/S100A9 heterodimer; subunits judged by gel electrophoresis and mass spectrometry

- binding result: binds
B1: S100A8(C42S)(I60E) subunit (natural protein, human, UniProt P05109 1-93, looked up)
chain: MLTELEKALNSIIDVYHKYSLIKGNFHAVYRDDLKKLLETESPQYIRKKGADVWFKELDENTDGAVNFQEFLILVIKMGVAAHKKSHEESHKE
notes: S100A8, human, 93 amino acids; also called S100A8 subunit of I60E

- binding result: binds
B2: S100A8(C42S)(I60K) subunit (natural protein, human, UniProt P05109 1-93, looked up)
chain: B1 chain with E60K
notes: S100A8, human, 93 amino acids; also called S100A8 subunit of I60K
